# B1: full-length wild-type SV40 VP1 (pentamers) (natural protein)
# chain: MAPTKRKGSCPGAAPKKPKEPVQVPKLVIKGGIEVLGVKTGVDSFTEVECFLNPQMGNPDEHQKGLSKSLAAEKQFTDDSPDKEQLPCYSVARIPLPNINEDLTCGNILMWEAVTVKTEVIGVTAMLNLHSGTQKTHENGAGKPIQGSNFHFFAVGGEPLELQGVLANYRTKYPAQTVTPKNATVDSQQMNTDHKAVLDKDNAYPVECWVPDPSKNENTRYFGTYTGGENVPPVLHITNTATTVLLDEQGVGPLCKADSLYVSAVDICGLFTNTSGTQQWKGLPRYFKITLRKRSVKNPYPISFLLSDLINRRTQRVDGQPMIGMSSQVEEVRVYEDTEELPGDPDMIRYIDEFGQTTTRMQ
# notes: major capsid protein VP1 of simian virus 40, full length, wild type, in the pGEX-4T2 plasmid; The virus stocks are strain 776, but no strain is stated for the bacterial construct; The preparations held pentamers and higher-order structures; no intact VLPs were seen; also called major capsid protein VP1; wild-type VP1 pentamers
# Columns and labels:
# [1] = target: C-terminal deletion VP1 mutant (ΔC), truncated after amino acid position 305 (pentamers) (simian virus 40) (UniProt P03087); experiment: negative-stain electron microscopy; purified pentamers diluted in PBS pH 7.2 at 20 µg/ml, stained with 1% uranyl acetate, Tecnai T12; step: VP1 chains to pentamer
# [2] = target: the molecule itself; experiment: as above
Molecule,stoichiometry N [1],stoichiometry N [2]
"C-terminal deletion VP1 mutant (ΔC), truncated after amino acid position 305 (pentamers) (from UniProt P03087 1-305) (domain or fragment)",5,
B1,,5

# — paper PMC4807364, “Interaction between Simian Virus 40 Major Capsid Protein VP1 and Cell Surface Ganglioside GM1 Triggers Vacuole Formation” (mBio, 2016)
